In the supplement of paper PMC9112550, “Optimization of the antimicrobial peptide Bac7 by deep mutational scanning” (BMC Biology, 2022):

System: Escherichia coli TOP10
Assay: shrunken log2 fold change of peptide-encoding DNA abundance (4.5 h post-induction vs induction); higher = less antimicrobial activity (less host growth inhibition)
Conditions: time post-induction: 4.5 h; library: site-saturation at positions 5, 18, 19, 20
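Further: peptides expressed intracellularly from a pBAD plasmid library in pooled LB shake-flask culture, induced with 0.3% L-arabinose, DNA abundance read by NGS, three biological replicates, DESeq2 with apeglm shrinkage.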

RRIRNRPPRLPRPRPRPWARPRP
shrunken log2 fold change: 0.0712

RRIRNRPPRLPRPRPRPWAYPRP
shrunken log2 fold change: -0.0322

RRIRNRPPRLPRPRPRPWCTPRP
shrunken log2 fold change: -0.205

RRIRNRPPRLPRPRPRPWFEPRP
shrunken log2 fold change: -0.879

RRIRNRPPRLPRPRPRPWFFPRP
shrunken log2 fold change: -0.0137

RRIRNRPPRLPRPRPRPWFGPRP
shrunken log2 fold change: -0.208

RRIRNRPPRLPRPRPRPWHPPRP
shrunken log2 fold change: -0.277

RRIRNRPPRLPRPRPRPWHTPRP
shrunken log2 fold change: -0.0681

RRIRNRPPRLPRPRPRPWKFPRP
shrunken log2 fold change: -0.0447

RRIRNRPPRLPRPRPRPWKTPRP
shrunken log2 fold change: 0.0489

RRIRNRPPRLPRPRPRPWLKPRP
shrunken log2 fold change: -0.0113

RRIRNRPPRLPRPRPRPWLQPRP
shrunken log2 fold change: -0.0113

RRIRNRPPRLPRPRPRPWLVPRP
shrunken log2 fold change: -0.151

RRIRNRPPRLPRPRPRPWNIPRP
shrunken log2 fold change: -0.0117

RRIRNRPPRLPRPRPRPWRVPRP
shrunken log2 fold change: 0.515

RRIRNRPPRLPRPRPRPWSHPRP
shrunken log2 fold change: -0.17

RRIRNRPPRLPRPRPRPWSSPRP
shrunken log2 fold change: -0.0666

RRIRNRPPRLPRPRPRPWTHPRP
shrunken log2 fold change: -0.0174

RRIRNRPPRLPRPRPRPWTYPRP
shrunken log2 fold change: -0.351

RRIRNRPPRLPRPRPRPWWDPRP
shrunken log2 fold change: -0.00674

RRIRNRPPRLPRPRPRPWWWPRP
shrunken log2 fold change: 0.373

RRIRNRPPRLPRPRPRPWWYPRP
shrunken log2 fold change: -0.361

RRIRNRPPRLPRPRPRPWYIPRP
shrunken log2 fold change: 0.00246

RRIRNRPPRLPRPRPRPWYSPRP
shrunken log2 fold change: -2.32

RRIRNRPPRLPRPRPRPYAHPRP
shrunken log2 fold change: -0.176

RRIRNRPPRLPRPRPRPYARPRP
shrunken log2 fold change: -0.0034

RRIRNRPPRLPRPRPRPYASPRP
shrunken log2 fold change: -0.397

RRIRNRPPRLPRPRPRPYCIPRP
shrunken log2 fold change: -0.177

RRIRNRPPRLPRPRPRPYDQPRP
shrunken log2 fold change: -0.37

RRIRNRPPRLPRPRPRPYDSPRP
shrunken log2 fold change: -0.284

RRIRNRPPRLPRPRPRPYENPRP
shrunken log2 fold change: -0.0659

RRIRNRPPRLPRPRPRPYERPRP
shrunken log2 fold change: 0.0318

RRIRNRPPRLPRPRPRPYFRPRP
shrunken log2 fold change: -0.766

RRIRNRPPRLPRPRPRPYHAPRP
shrunken log2 fold change: -0.0081

RRIRNRPPRLPRPRPRPYHIPRP
shrunken log2 fold change: -0.366

RRIRNRPPRLPRPRPRPYHRPRP
shrunken log2 fold change: -0.121

RRIRNRPPRLPRPRPRPYKCPRP
shrunken log2 fold change: -0.13

RRIRNRPPRLPRPRPRPYKDPRP
shrunken log2 fold change: 0.0141

RRIRNRPPRLPRPRPRPYLPPRP
shrunken log2 fold change: -0.245

RRIRNRPPRLPRPRPRPYMRPRP
shrunken log2 fold change: -0.597

RRIRNRPPRLPRPRPRPYNAPRP
shrunken log2 fold change: -1.54

RRIRNRPPRLPRPRPRPYNLPRP
shrunken log2 fold change: 0.00765

RRIRNRPPRLPRPRPRPYNNPRP
shrunken log2 fold change: -1.19

RRIRNRPPRLPRPRPRPYNSPRP
shrunken log2 fold change: -1.61

RRIRNRPPRLPRPRPRPYPCPRP
shrunken log2 fold change: -0.00822

RRIRNRPPRLPRPRPRPYRTPRP
shrunken log2 fold change: -0.268

RRIRNRPPRLPRPRPRPYSFPRP
shrunken log2 fold change: -1.01

RRIRNRPPRLPRPRPRPYSLPRP
shrunken log2 fold change: -0.965

RRIRNRPPRLPRPRPRPYSNPRP
shrunken log2 fold change: -0.155

RRIRNRPPRLPRPRPRPYVCPRP
shrunken log2 fold change: -0.363

RRIRNRPPRLPRPRPRPYWSPRP
shrunken log2 fold change: -0.195

RRIRNRPPRLPRPRPRPYYVPRP
shrunken log2 fold change: -0.207

RRIRPRPPRLPRPRPRPAALPRP
shrunken log2 fold change: 0.248

RRIRPRPPRLPRPRPRPACDPRP
shrunken log2 fold change: 0.00904

RRIRPRPPRLPRPRPRPADFPRP
shrunken log2 fold change: -0.00303

RRIRPRPPRLPRPRPRPADPPRP
shrunken log2 fold change: 0.558

RRIRPRPPRLPRPRPRPAFMPRP
shrunken log2 fold change: -0.0434

RRIRPRPPRLPRPRPRPAGIPRP
shrunken log2 fold change: -0.0533

RRIRPRPPRLPRPRPRPAHAPRP
shrunken log2 fold change: 0.236

RRIRPRPPRLPRPRPRPAKSPRP
shrunken log2 fold change: 0.179

RRIRPRPPRLPRPRPRPALCPRP
shrunken log2 fold change: 0.371

RRIRPRPPRLPRPRPRPALLPRP
shrunken log2 fold change: 0.0603

RRIRPRPPRLPRPRPRPALYPRP
shrunken log2 fold change: -0.0126

RRIRPRPPRLPRPRPRPAPHPRP
shrunken log2 fold change: 0.402

RRIRPRPPRLPRPRPRPAQTPRP
shrunken log2 fold change: 0.177

RRIRPRPPRLPRPRPRPARDPRP
shrunken log2 fold change: 0.208

RRIRPRPPRLPRPRPRPAREPRP
shrunken log2 fold change: 0.68

RRIRPRPPRLPRPRPRPARRPRP
shrunken log2 fold change: 0.374

RRIRPRPPRLPRPRPRPARSPRP
shrunken log2 fold change: 0.315

RRIRPRPPRLPRPRPRPARVPRP
shrunken log2 fold change: 0.295

RRIRPRPPRLPRPRPRPAVNPRP
shrunken log2 fold change: -0.103

RRIRPRPPRLPRPRPRPAVQPRP
shrunken log2 fold change: 0.168

RRIRPRPPRLPRPRPRPAWLPRP
shrunken log2 fold change: 0.513

RRIRPRPPRLPRPRPRPAYEPRP
shrunken log2 fold change: 0.0834

RRIRPRPPRLPRPRPRPAYRPRP
shrunken log2 fold change: -0.0399

RRIRPRPPRLPRPRPRPCAKPRP
shrunken log2 fold change: -0.0518

RRIRPRPPRLPRPRPRPCAVPRP
shrunken log2 fold change: -0.418

RRIRPRPPRLPRPRPRPCCFPRP
shrunken log2 fold change: -0.133

RRIRPRPPRLPRPRPRPCFWPRP
shrunken log2 fold change: 0.179

RRIRPRPPRLPRPRPRPCGLPRP
shrunken log2 fold change: 0.148

RRIRPRPPRLPRPRPRPCGNPRP
shrunken log2 fold change: -0.0502

RRIRPRPPRLPRPRPRPCIEPRP
shrunken log2 fold change: -0.291

RRIRPRPPRLPRPRPRPCILPRP
shrunken log2 fold change: -1.04

RRIRPRPPRLPRPRPRPCKWPRP
shrunken log2 fold change: -0.32

RRIRPRPPRLPRPRPRPCLFPRP
shrunken log2 fold change: -0.357

RRIRPRPPRLPRPRPRPCMMPRP
shrunken log2 fold change: -0.467

RRIRPRPPRLPRPRPRPCNAPRP
shrunken log2 fold change: -0.179

RRIRPRPPRLPRPRPRPCNKPRP
shrunken log2 fold change: -0.102

RRIRPRPPRLPRPRPRPCNVPRP
shrunken log2 fold change: -0.314

RRIRPRPPRLPRPRPRPCPLPRP
shrunken log2 fold change: -0.208

RRIRPRPPRLPRPRPRPCRIPRP
shrunken log2 fold change: -0.00277

RRIRPRPPRLPRPRPRPCRWPRP
shrunken log2 fold change: 0.0987

RRIRPRPPRLPRPRPRPCSAPRP
shrunken log2 fold change: 0.199

RRIRPRPPRLPRPRPRPCTPPRP
shrunken log2 fold change: -0.167

RRIRPRPPRLPRPRPRPCVQPRP
shrunken log2 fold change: 0.283

RRIRPRPPRLPRPRPRPCWFPRP
shrunken log2 fold change: -0.0933

RRIRPRPPRLPRPRPRPCWRPRP
shrunken log2 fold change: 0.00714

RRIRPRPPRLPRPRPRPCYSPRP
shrunken log2 fold change: -0.507

RRIRPRPPRLPRPRPRPDCTPRP
shrunken log2 fold change: -0.167

RRIRPRPPRLPRPRPRPDEGPRP
shrunken log2 fold change: -0.188

RRIRPRPPRLPRPRPRPDEYPRP
shrunken log2 fold change: -0.015

RRIRPRPPRLPRPRPRPDGDPRP
shrunken log2 fold change: 0.152

RRIRPRPPRLPRPRPRPDHPPRP
shrunken log2 fold change: -0.147

RRIRPRPPRLPRPRPRPDHQPRP
shrunken log2 fold change: -0.0869

RRIRPRPPRLPRPRPRPDINPRP
shrunken log2 fold change: -0.673

RRIRPRPPRLPRPRPRPDLQPRP
shrunken log2 fold change: -0.221

RRIRPRPPRLPRPRPRPDNGPRP
shrunken log2 fold change: -0.332

RRIRPRPPRLPRPRPRPDNVPRP
shrunken log2 fold change: 0.115

RRIRPRPPRLPRPRPRPDPDPRP
shrunken log2 fold change: -0.0832
